# Source: patent publication US20160137713A1
# Legend:
# [1] = target: human FcRn on HEK293 cells (human) (UniProt P55899); experiment: FACS competition on hFcRn HEK293 cells at pH 6.0; remaining binding of 100 nM Alexa488-labeled hIgG1 (m14) with 1000 nM unlabeled competitor, percent of the tube without competitor
# [2] = target: human FcRn on HEK293 cells (human) (UniProt P55899); experiment: FACS competition on hFcRn HEK293 cells at pH 6.0; remaining binding of 100 nM Alexa488-labeled hIgG1 (m14) with 500 nM unlabeled competitor, percent of the tube without competitor
# [3] = target: human FcRn on HEK293 cells (human) (UniProt P55899); experiment: FACS on hFcRn-overexpressing HEK293 cells at pH 6.0, Alexa488 anti-human goat antibody; hIgG1 is the reference of the ratio
# [4] = target: human FcRn on HEK293 cells (human) (UniProt P55899); experiment: FACS on hFcRn-overexpressing HEK293 cells at pH 7.4, Alexa488 anti-human goat antibody; hIgG1 is the reference of the ratio
# [5] = target: human FcRn on HEK293 cells (human) (UniProt P55899); experiment: FACS competition on hFcRn HEK293 cells at pH 6.0; remaining binding of 100 nM Alexa488-labeled hIgG1 (m14) with 250 nM unlabeled competitor, percent of the tube without competitor
# Sequence of human FcRn on HEK293 cells (human) (P55899 24-365, chain 1 of 2): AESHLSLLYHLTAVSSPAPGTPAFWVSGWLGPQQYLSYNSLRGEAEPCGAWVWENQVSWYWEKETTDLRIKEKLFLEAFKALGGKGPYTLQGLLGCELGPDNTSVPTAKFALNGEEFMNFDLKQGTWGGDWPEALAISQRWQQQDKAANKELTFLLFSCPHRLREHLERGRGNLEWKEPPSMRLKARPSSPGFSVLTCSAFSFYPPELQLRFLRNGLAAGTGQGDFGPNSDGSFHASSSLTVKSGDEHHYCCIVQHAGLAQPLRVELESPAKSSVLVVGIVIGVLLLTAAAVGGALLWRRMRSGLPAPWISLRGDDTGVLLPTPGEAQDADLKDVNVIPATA
# Sequence of human FcRn on HEK293 cells (human) (P61769 21-119, chain 2 of 2, further chain): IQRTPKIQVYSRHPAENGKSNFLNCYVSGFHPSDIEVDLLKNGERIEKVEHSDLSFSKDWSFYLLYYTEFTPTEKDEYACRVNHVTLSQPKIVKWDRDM
substance,measurement,setting,value
human IgG1 (antibody),Relative MFI(%) at 1000nM,[1],69.1%
same,Relative MFI(%) at 500nM,[2],69.9%
same,Relative MFI (Fold),[3],1 fold
same,Relative MFI (Fold),[4],1 fold
same,Relative MFI(%) at 250nM,[5],87.4%
